Results on two molecules are retold here after paper PMC6513899, “The structural basis of translational control by eIF2 phosphorylation” (Nature Communications, 2019).

Data set [1] concerns the target T1, eIF2Bδ (subunit of eIF2B) (S. cerevisiae, UniProt P12754 1-651).
T1 construct: eIF2B delta subunit, S. cerevisiae; Stood in the assay as a subunit of the eIF2B decamer; also called eIF2B delta; source: S. cerevisiae strains GP5949 and GP7055, purified as part of Flag-eIF2B
T1 sequence: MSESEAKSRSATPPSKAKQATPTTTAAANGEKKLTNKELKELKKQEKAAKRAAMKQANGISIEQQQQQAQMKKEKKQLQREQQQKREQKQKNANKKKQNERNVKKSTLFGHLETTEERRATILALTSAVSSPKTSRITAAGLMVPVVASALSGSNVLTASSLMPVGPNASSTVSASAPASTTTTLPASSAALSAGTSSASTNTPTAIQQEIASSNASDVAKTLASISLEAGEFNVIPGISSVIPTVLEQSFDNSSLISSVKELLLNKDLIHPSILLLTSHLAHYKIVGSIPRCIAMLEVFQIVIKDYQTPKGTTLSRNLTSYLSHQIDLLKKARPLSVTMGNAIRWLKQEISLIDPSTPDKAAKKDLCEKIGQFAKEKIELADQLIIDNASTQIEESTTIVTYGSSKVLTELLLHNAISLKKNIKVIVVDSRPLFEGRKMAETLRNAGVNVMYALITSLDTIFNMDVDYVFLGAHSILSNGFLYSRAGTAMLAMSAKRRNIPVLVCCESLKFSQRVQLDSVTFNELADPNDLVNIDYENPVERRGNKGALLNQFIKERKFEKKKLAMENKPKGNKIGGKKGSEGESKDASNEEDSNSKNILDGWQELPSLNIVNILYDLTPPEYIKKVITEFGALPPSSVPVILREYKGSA
The experiment in a line: cryo-EM structure; eIF2αP/eIF2B complex: six-fold molar excess of eIF2αP added to purified eIF2B (GP5949), fractionated on Superose 6 in 20 mM Tris-HCl, 100 mM KCl, 1 mM TCEP, pH 7.5; core map 3.9 Å, lateral densities 8-18 Å; half-particles classified by localised reconstruction. The following applies: both partners purified.

Data set [2] deals with the molecule itself. The description is as above.

B1: eIF2Bβ (subunit of eIF2B) (natural protein, S. cerevisiae)
chain: MSSQAFTSVHPNAATSDVNVTIDTFVAKLKRRQVQGSYAIALETLQLLMRFISAARWNHVNDLIEQIRDLGNSLEKAHPTAFSCGNVIRRILAVLRDEVEEDTMSTTVTSTSVAEPLISSMFNLLQKPEQPHQNRKNSSGSSSMKTKTDYRQVAIQGIKDLIDEIKNIDEGIQQIAIDLIHDHEILLTPTPDSKTVLKFLITARERSNRTFTVLVTEGFPNNTKNAHEFAKKLAQHNIETLVVPDSAVFALMSRVGKVIIGTKAVFVNGGTISSNSGVSSVCECAREFRTPVFAVAGLYKLSPLYPFDVEKFVEFGGSQRILPRMDPRKRLDTVNQITDYVPPENIDIYITNVGGFNPSFIYRIAWDNYKQIDVHLDKNKA
notes: eIF2B beta subunit, S. cerevisiae; Stood in the assay as a subunit of the eIF2B decamer; also called eIF2B beta; source: S. cerevisiae strains GP5949 and GP7055, purified as part of Flag-eIF2B
As for B1, in data set [1], the binding result is recorded as “binds”.

B2: eIF2Bα (subunit of eIF2B) (natural protein, S. cerevisiae)
chain: MSEFNITETYLRFLEEDTEMTMPIAAIEALVTLLRIKTPETAAEMINTIKSSTEELIKSIPNSVSLRAGCDIFMRFVLRNLHLYGDWENCKQHLIENGQLFVSRAKKSRNKIAEIGVDFIADDDIILVHGYSRAVFSLLNHAANKFIRFRCVVTESRPSKQGNQLYTLLEQKGIPVTLIVDSAVGAVIDKVDKVFVGAEGVAESGGIINLVGTYSVGVLAHNARKPFYVVTESHKFVRMFPLSSDDLPMAGPPLDFTRRTDDLEDALRGPTIDYTAQEYITALITDLGVLTPSAVSEELIKMWYD
notes: eIF2B alpha subunit, S. cerevisiae; Stood in the assay as a subunit of the eIF2B decamer; also called eIF2B alpha; source: S. cerevisiae strains GP5949 and GP7055, purified as part of Flag-eIF2B
B2: the binding result in data set [2] was “binds”.
